# Assay results from the RNAGym collection of RNA variant scans (doi:10.7554/elife.80360).
# B1: Hammerhead Ribozyme (parent)
# chain: ACCGGAUGUGCUUUCCGGUCUGAUGAGUCCGUGAGGACGAAACAG
# Variants of: B1
# Assay: self-cleavage, relative activity (ratio to wild type); higher = more cleavage; co-transcriptional
row,Variant,self-cleavage
1,ACCGGAUGUGAUUUCCGGUCUGAUGAGUCCGUAAGGACGAAACAG,1.22
2,ACCGGAUGUGAUUUCCGGUCUGAUGAGUCCGUCAGGACGAAACAG,1.27
3,ACCGGAUGUGAUUUCCGGUCUGAUGAGUCCGUUAGGACGAAACAG,1.21
4,ACCGGAUGUGAUUUCCGGUCUGAUGAGUCCGUGAGGACGAAACCG,0.569
5,ACCGGAUGUGAUUUCCGGUCUGAUGAGUCCGUGAGGACGAAACGG,1.57
6,ACCGGAUGUGAUUUCCGGUCUGAUGAGUCCGUGAGGACGAAACUG,0.666
7,ACCGGAUGUGAUUUCCGGUCUAAUGAGUCCGUGAGGACGAAACAG,0.348
8,ACCGGAUGUGAUUUCCGGUCUCAUGAGUCCGUGAGGACGAAACAG,0.35
9,ACCGGAUGUGAUUUCCGGUCUUAUGAGUCCGUGAGGACGAAACAG,0.246
10,ACCGGAUGUGAUUUCCGGGCUGAUGAGUCCGUGAGGACGAAACAG,0.392
11,ACCGGAUGUGAUUUCCGGCCUGAUGAGUCCGUGAGGACGAAACAG,0.603
12,ACCGGAUGUGAUUUCCGGACUGAUGAGUCCGUGAGGACGAAACAG,0.358
13,ACCGGAUGUGAUUUCCGGUCUGAUGAGUCCGUGAGGAGGAAACAG,0.881
14,ACCGGAUGUGAUUUCCGGUCUGAUGAGUCCGUGAGGAAGAAACAG,0.892
15,ACCGGAUGUGAUUUCCGGUCUGAUGAGUCCGUGAGGAUGAAACAG,1.1
16,ACCGGAUGUGAUUUCCGGUCUGAUGAGGCCGUGAGGACGAAACAG,0.964
17,ACCGGAUGUGAUUUCCGGUCUGAUGAGCCCGUGAGGACGAAACAG,1.1
18,ACCGGAUGUGAUUUCCGGUCUGAUGAGACCGUGAGGACGAAACAG,1.04
19,ACCGGAUGUGAUUGCCGGUCUGAUGAGUCCGUGAGGACGAAACAG,1.27

row,Variant,self-cleavage
1,ACCGGAUGUGAUUACCGGUCUGAUGAGUCCGUGAGGACGAAACAG,0.829
2,ACCGGAUGUGAUUCCCGGUCUGAUGAGUCCGUGAGGACGAAACAG,1.17
3,ACCGGAUGUGAUUUUCGGUCUGAUGAGUCCGUGAGGACGAAACAG,1.01
4,ACCGGAUGUGAUUUACGGUCUGAUGAGUCCGUGAGGACGAAACAG,0.851
5,ACCGGAUGUGAUUUGCGGUCUGAUGAGUCCGUGAGGACGAAACAG,1.15
6,ACCGGAUGUGGUUUCAGGUCUGAUGAGUCCGUGAGGACGAAACAG,0.865
7,ACCGGAUGUGGUUUCGGGUCUGAUGAGUCCGUGAGGACGAAACAG,0.999
8,ACCGGAUGUGGUUUCUGGUCUGAUGAGUCCGUGAGGACGAAACAG,1.23
9,ACCGGAUGUGGUUUCCGGUCUGAUGAGUCCGUGAGGACGCAACAG,0.838
10,ACCGGAUGUGGUUUCCGGUCUGAUGAGUCCGUGAGGACGUAACAG,0.273
11,ACCGGAUGUGGUUUCCGGUCUGAUGAGUCCGUGAGGACGGAACAG,0.413
12,ACCGGAUGUGGUUUCCGGUCUGAUGAGUCCGUGAGGACGACACAG,0.366
13,ACCGGAUGUGGUUUCCGGUCUGAUGAGUCCGUGAGGACGAGACAG,0.413
14,ACCGGAUGUGGUUUCCGGUCUGAUGAGUCCGUGAGGACGAUACAG,0.382
15,ACCGGAUGUGAUUUCCCGUCUGAUGAGUCCGUGAGGACGAAACAG,0.506
16,ACCGGAUGUGAUUUCCUGUCUGAUGAGUCCGUGAGGACGAAACAG,1
17,ACCGGAUGUGAUUUCCAGUCUGAUGAGUCCGUGAGGACGAAACAG,0.717
18,ACCGGAUGUGAAUUCCGGUCUGAUGAGUCCGUGAGGACGAAACAG,0.977
19,ACCGGAUGUGAGUUCCGGUCUGAUGAGUCCGUGAGGACGAAACAG,1.61

row,Variant,self-cleavage
1,ACCGGAUGUGACUUCCGGUCUGAUGAGUCCGUGAGGACGAAACAG,1.08
2,ACCGGAUGUGAUUUCCGCUCUGAUGAGUCCGUGAGGACGAAACAG,0.586
3,ACCGGAUGUGAUUUCCGAUCUGAUGAGUCCGUGAGGACGAAACAG,0.839
4,ACCGGAUGUGAUUUCCGUUCUGAUGAGUCCGUGAGGACGAAACAG,1.04
5,ACCGGAUGUGAUUUCCGGUCUGAUGAGUCCGUGAGCACGAAACAG,0.911
6,ACCGGAUGUGAUUUCCGGUCUGAUGAGUCCGUGAGUACGAAACAG,0.762
7,ACCGGAUGUGAUUUCCGGUCUGAUGAGUCCGUGAGAACGAAACAG,0.847
8,ACCGGAUGUGAUUUCCGGUCUGAUGAGUCCUUGAGGACGAAACAG,1.08
9,ACCGGAUGUGAUUUCCGGUCUGAUGAGUCCAUGAGGACGAAACAG,1.21
10,ACCGGAUGUGAUUUCCGGUCUGAUGAGUCCCUGAGGACGAAACAG,1.12
11,ACCGGAUGUGGUUUCCGGUCUGAUGAGUCCGUGAGGACGAAACUG,0.648
12,ACCGGAUGUGGUUUCCGGUCUGAUGAGUCCGUGAGGACGAAACGG,1.8
13,ACCGGAUGUGGUUUCCGGUCUGAUGAGUCCGUGAGGACGAAACCG,0.769
14,ACCGGAUGUGAUUUCCGGUCUGAUGAGUACGUGAGGACGAAACAG,0.783
15,ACCGGAUGUGAUUUCCGGUCUGAUGAGUUCGUGAGGACGAAACAG,1.08
16,ACCGGAUGUGAUUUCCGGUCUGAUGAGUGCGUGAGGACGAAACAG,0.809
17,ACCGGAUGUGAUUUCCGGUCUGAUGAGUCCGUGAGGACUAAACAG,0.29
18,ACCGGAUGUGAUUUCCGGUCUGAUGAGUCCGUGAGGACCAAACAG,0.438
19,ACCGGAUGUGAUUUCCGGUCUGAUGAGUCCGUGAGGACAAAACAG,0.303
